Laboratory results: patent US20090280060A1, “PHOTOCHROMIC PROBES” (priority 2004, published 2009)
Like-named read-outs stand apart in the source and are kept apart here.

Assays:
[1] = Thermally driven MC to SP transition, decrease of MC absorption in the dark; assay type: physicochemical
Experimental: FIG. 7. (A), Time dependent absorption spectra of the lowest energy transition of the MC state of compound 12 dissolved in ethanol at a concentration of 20 μM at 20° in the dark—the spectra, from top to bottom, were recorded at the following times: a) 0; b), 60 s, c), 120 s; d), 180 s; e), 240 s; f), 360 s; g), 420 s; h), 480 s. The lowermost curve is the absorption spectrum of the non-irradiated SP state. (B), The rate for the thermally driven MC to SP transition was determined by analyzing the log of the maximum absorption value for each spectrum shown in FIG. 7A as a function of time. The reaction rate of […] was calculated using a least squares fitting procedure. (C), Absorption spectra of the MC-G-actin conjugate (compound 9) as a function of time in the dark. Spectra are as follows: a), before irradiation; b), after 30 second irradiation with 365 nm light; c), after 5 minutes in the dark at 20°; d), after 22 minutes in the dark at 20°; e) after irradiation with 546 nm light for 30 seconds
Thermally-driven transitions between MC and SP. The rate for the thermal equilibration of MC to SP in ethanol was measured using the decrease in the maximum MC absorption value as a function of time in the dark (FIGS. 7A,B). […] This rate, however, is too fast for many of the envisioned applications of optical switches in biology. […]

[2] = Absorption maximum of the MC state; assay type: physicochemical
Text: The family of Ca^2+-optical switch described in this invention has built-in design features that can be used to tune the maximum of the action spectrum for the MC-SP transition. The nitro group generates a weakly fluorescent MC state, which can be used to quantify the kinetics of Ca^2+-perturbations and to image the distribution of the MC state within living cells.
The absorption properties of the MC state of the Ca^2+ switch can be tuned using different 1-nitroso-2-naphthol. […] We will investigate the photophysics of optimized Ca^2+ switches based on spironaphthoxazine. We anticipate, based on our observations of the thermally-induced MC to SP transition that the rate of photochemistry for the spironaphthoxazine will be faster that the 11 μs reported for the spirobenzopyran group (Gorner, 2001).

[3] = target: T1, G-actin (Oryctolagus cuniculus, UniProt P68135); assay: CapG binding to Prodan-G-actin (fluorescence); set-up: Rabbit muscle G-actin is purified according to Marriott (1994); from tissue; host or cells: rabbit muscle; species or system Rabbit
Experimental: (§1) FIG. 20: Caging of CapG (A): Absorption spectra of […] samples of CapG (2), caged CapG (curve 1).
Preparation and characterization of caged CapG: Caged CapG was prepared using a modification of our published method for caging actin and profilin (Marriott, 1994; Marriott et al, 2003). In brief a purified solution of CapG (1 mg/ml) was dialyzed against 20 mM borate buffer, pH 8.5 overnight. The protein was centrifuged and the OD280 nm measured to determine the protein concentration (FIG. 8A). A 0.1 M acetone solution of NVOC-Cl was freshly prepared and added to the CapG with vigorous vortexing to a final concentration of 1 mM. This was usually realized by 2-3 additions over a 5-minute period. After 30 minutes at room temperature in the dark, the protein was centrifuged and dialyzed against 2×500 ml of G-buffer overnight. The absorption spectrum of the protein was recorded using the dialysis buffer as a reference and the amount of NVOC was determined by measuring the A350nm (E350nm=5,000 M^−1cm^−1). The concentration of protein was determined using the Bio-Rad Bradford assay. The introduction of 3-4 NVOC groups was sufficient to inhibit the formation of G-actin-CapG using two independent assays based on sensitivity of Prodan-actin to CapG binding. […]

[4] = target: T1, G-actin; assay: Prodan-actin polymerization kinetics; assay type: biochemical, Rabbit; set-up: Rabbit muscle G-actin is purified according to Marriott (1994); from tissue; host or cells: rabbit muscle
Experimental: as §1
Preparation and characterization of caged CapG: Caged CapG was prepared using a modification of our published method for caging actin and profilin (Marriott, 1994; Marriott et al, 2003). In brief a purified solution of CapG (1 mg/ml) was dialyzed against 20 mM borate buffer, pH 8.5 overnight. The protein was centrifuged and the OD280 nm measured to determine the protein concentration (FIG. 8A). A 0.1 M acetone solution of NVOC-Cl was freshly prepared and added to the CapG with vigorous vortexing to a final concentration of 1 mM. This was usually realized by 2-3 additions over a 5-minute period. After 30 minutes at room temperature in the dark, the protein was centrifuged and dialyzed against 2×500 ml of G-buffer overnight. The absorption spectrum of the protein was recorded using the dialysis buffer as a reference and the amount of NVOC was determined by measuring the A350nm (E350nm=5,000 M^−1cm^−1). The concentration of protein was determined using the Bio-Rad Bradford assay. The introduction of 3-4 NVOC groups was sufficient to inhibit the formation of G-actin-CapG using two independent assays based on sensitivity of Prodan-actin to CapG binding. In FIG. 20B, CapG binding to Prodan-G-actin is seen to shift the emission spectrum, from 496 nm to 465 nm, and is accompanied by a 1.5 fold (FIG. 20B, curve 1)—this signal can be used to analyze the effects of CapG on actin polymerization kinetics as shown in FIG. 20C.

[5] = target: barbed-end of the actin filament; details: Ca^2+-dependent; Southwick & DiNubile, 1986; read-out: kd for binding to the barbed-end of the actin filament; cited from earlier work

thermal reversion to the SP state [1]	MC state absorption maximum [2]	Kd ([3]; data not shown, read-out: kd of complex with G-actin) [nM]	binding to G-actin ([3]; Prodan-G-actin)	effect on actin polymerization ([4]; listed as Caged CapG)	Molecule	effect on actin polymerization [4]	Kd [5] [nM]
within seconds	about 620 nm	–	–	–	CN1c2cc(CBr)ccc2C(C)(C)C12C=Nc1c(ccc3ccccc13)O2 (centres unmarked) [Compound 17, 6′-(Bromomethyl)spironaphthoxazin]	–	–
–	–	100	–	–	CapG: 40 kD, Ca^2+ regulated actin filament barbed-end capping protein, His-tagged, cloned from mouse cDNA library (protein, UniProt P24452 1-352, looked up, His tag, 40 kD, Ca^2+ regulated actin filament barbed-end capping protein, His-tagged, cloned from mouse cDNA library) Macrophage-capping protein: MYTPIPQSGSPFPASVQDPGLHIWRVEKLKPVPIARESHGIFFSGDSYLVLHNGPEEASHLHLWIGQQSSRDEQGACAVLAVHLNTLLGERPVQHREVQGNESDLFMSYFPRGLKYYREGGVESAFHKTTSGARGAAIRKLYQVKGKKNIRATERPLSWDSFNTGDCFILDLGQNIFAWCGGKSNILERNKARDLALAIRDSERQGKAQVEIITDGEEPAEMIQVLGPKPALKEGNPEEDITADQTRPNAQAAALYKVSDATGQMNLTKVADSSPFASELLIPDDCFVLDNGLCAQIYIWKGRKANEKERQAALQVADGFISRMRYSPNTQVEILPQGRESPIFKQFFKNWK	inhibits the polymerization of G-actin	1000
–	–	–	binds poorly to G-actin	almost normal polymerization kinetics	caged CapG: CapG labeled with 3-4 NVOC groups using NVOC-Cl (protein, UniProt P24452 1-352, looked up, caged with 3-4 NVOC groups, CapG labeled with 3-4 NVOC groups using NVOC-Cl) Macrophage-capping protein: MYTPIPQSGSPFPASVQDPGLHIWRVEKLKPVPIARESHGIFFSGDSYLVLHNGPEEASHLHLWIGQQSSRDEQGACAVLAVHLNTLLGERPVQHREVQGNESDLFMSYFPRGLKYYREGGVESAFHKTTSGARGAAIRKLYQVKGKKNIRATERPLSWDSFNTGDCFILDLGQNIFAWCGGKSNILERNKARDLALAIRDSERQGKAQVEIITDGEEPAEMIQVLGPKPALKEGNPEEDITADQTRPNAQAAALYKVSDATGQMNLTKVADSSPFASELLIPDDCFVLDNGLCAQIYIWKGRKANEKERQAALQVADGFISRMRYSPNTQVEILPQGRESPIFKQFFKNWK	limited effect on the rate of actin polymerization	–
